Data on 6 substances can be found in paper PMC5440646, “T Cell Costimulation by CD6 Is Dependent on Bivalent Binding of a GADS/SLP-76 Complex” (Molecular and Cellular Biology, 2017).

The target of test [1] is GADS (UniProt O75791). Kind of test: CD6 MAb immunoprecipitation, Western blot. The following applies: reference: wild-type CD6-EGFP; sites Y629. In general terms: A western blot detects proteins with antibodies after separation by electrophoresis.
The target in test [2] is SLP-76 (UniProt Q13094). Kind of test: CD6 MAb immunoprecipitation, Western blot. The following applies: reference: wild-type CD6-EGFP; sites Y662.
Test [3] addresses SLP-76 proline-rich motif (Homo sapiens) (UniProt Q13094). The following applies: cited from earlier work.
In test [4] the target is long CD6 peptide phosphorylated at Y629 and Y662 (human). Kind of test: SPR; biotinylated long CD6 peptides immobilised at ~50 response units on streptavidin-coated CM5 chips, BIAcore 3000; SH2 domains injected at 10 μl/min at 37°C; equilibrium binding, 1:1 Langmuir. (In general: SPR reads the build-up and loss of mass on a sensor chip optically.)
Chain of long CD6 peptide phosphorylated at Y629 and Y662 (human) (P30203 622-668): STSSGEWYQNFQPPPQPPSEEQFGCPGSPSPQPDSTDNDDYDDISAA
Test [5] addresses long CD6 peptide phosphorylated at Y629 (human). The test is described as above.
The target of test [6] is SLP-76 proline-rich motif (Homo sapiens) (UniProt Q13094). The following applies: cited from earlier work. This is another data set of the same source.
Test [7] has as its target long CD6 peptide phosphorylated at Y662 (human). Kind of test: SPR; biotinylated long CD6 peptides immobilised at ~50 response units on streptavidin-coated CM5 chips, BIAcore 3000; SH2 domains injected at 10 μl/min at 37°C; equilibrium binding, 1:1 Langmuir.

As a reminder, the Kd is the equilibrium constant for the complex coming apart.

Like-named read-outs stand apart in the source and are kept apart here.

Chain of GRB2 C-terminal SH3 (P62993 156-215): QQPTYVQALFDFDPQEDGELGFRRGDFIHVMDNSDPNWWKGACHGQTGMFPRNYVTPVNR
Chain of GADS C-terminal SH3 (O75791 271-330): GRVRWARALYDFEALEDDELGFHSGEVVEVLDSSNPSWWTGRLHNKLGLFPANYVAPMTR
Chain of long CD6 peptide phosphorylated at Y629 (human) (P30203 622-668): as the sequence (P30203 622-668) above
Chain of long CD6 peptide phosphorylated at Y662 (human) (P30203 622-668): as above

As for CD6 (from UniProt P30203) Y629F, in test [1], the “binding against the reference” value is “weaker”. Consider CD6 (from UniProt P30203) Y662F, for which, in test [2], the “binding against the reference” value is “weaker”. As to “GADS C-terminal SH3 (from UniProt O75791)”, in test [3], the Kd is 200 nM. Regarding “GADS SH2 domain, His-tagged (from UniProt O75791 58-149) (domain or fragment)”, the results for the Kd in test [4] and in test [5] were 100 to 2000 nM and 200 to 600 nM, respectively. Consider “GRB2 C-terminal SH3 (from UniProt P62993)”, for which the dissociation constant Kd in test [6] was 10000 nM. With “SLP-76 SH2 domain, His-tagged (from UniProt Q13094 422-530) (domain or fragment)”, the Kd in test [4] and in test [7] was 300 to 2000 nM in each case.
